Measurements reported in US20230357447A1 (JANUX THERAPEUTICS, published 2023).
Ends that are not written are not given here.

Columns and labels:
[1] = target: T1, Ab-12, anti-PD-L1xCD28 non-masked antibody in Vh format; assay: competition ELISA: peptide titrated against 5 nM Ab-12; binding of Ab-12 to captured biotinylated CD28 antigen is read
T1 construct: also called PDL1xCD28 non-masked (Vh)

[2] = target: T2, anti-CD28 scFv (SEQ ID NO: 9); assay: competition ELISA: peptide titrated against 2 nM anti-CD28 scFv; binding of the scFv to captured biotinylated CD28 antigen is read; table prints 'IC50 nM' but the axis is Log [Peptide, uM]; no fall of the signal
T2 construct: also called Anti-CD28 scFv (VH-linker 1-VL)

[3] = target: T1, Ab-12, anti-PD-L1xCD28 non-masked …; assay: competition ELISA: peptide titrated against 5 nM Ab-12; binding of Ab-12 to captured biotinylated CD28 antigen is read; table prints 'IC50 nM' but the axis is Log [Peptide, uM]; no fall of the signal
[4] = target: T3, Anti-CD28 scFv (VH-linker 1-VL) (biotinylated (site not stated)); assay: phage ELISA, scFv wells pre-incubated with soluble CD28 (competitor); background signal 0.071
T3 construct: biotinylated and captured on neutravidin coated plates in the phage ELISA

[5] = target: T3, Anti-CD28 scFv (VH-linker 1-VL); assay: phage ELISA, captured biotinylated scFv; background signal 0.071
[6] = target: T3, Anti-CD28 scFv (VH-linker 1-VL); assay: phage ELISA, scFv wells pre-incubated with soluble CD28 (competitor); background signal 0.062
[7] = target: T3, Anti-CD28 scFv (VH-linker 1-VL); assay: phage ELISA, captured biotinylated scFv; background signal 0.062
[8] = target: T3, Anti-CD28 scFv (VH-linker 1-VL); assay: phage ELISA, scFv wells pre-incubated with soluble CD28 (competitor); background signal 0.073
[9] = target: T3, Anti-CD28 scFv (VH-linker 1-VL); assay: phage ELISA, captured biotinylated scFv; background signal 0.073
[10] = target: T3, Anti-CD28 scFv (VH-linker 1-VL); assay: phage ELISA, captured biotinylated scFv; background signal 0.079
[11] = target: T3, Anti-CD28 scFv (VH-linker 1-VL); assay: phage ELISA, scFv wells pre-incubated with soluble CD28 (competitor); background signal 0.079
[12] = target: T3, Anti-CD28 scFv (VH-linker 1-VL); assay: phage ELISA, scFv wells pre-incubated with soluble CD28 (competitor); background signal 0.065
[13] = target: T3, Anti-CD28 scFv (VH-linker 1-VL); assay: phage ELISA, captured biotinylated scFv; background signal 0.065
[14] = target: T3, Anti-CD28 scFv (VH-linker 1-VL); assay: phage ELISA, captured biotinylated scFv; background signal 0.072
[15] = target: T3, Anti-CD28 scFv (VH-linker 1-VL); assay: phage ELISA, scFv wells pre-incubated with soluble CD28 (competitor); background signal 0.072
[16] = target: T3, Anti-CD28 scFv (VH-linker 1-VL); assay: phage ELISA, scFv wells pre-incubated with soluble CD28 (competitor); background signal 0.063

B1: Peptide-49 (peptide)
peptide: MHWCPVDLWYLCYN
modifications: cysteine pairing not given here; also: biotinylated, site not given here
notes: Synthetic biotinylated peptide loaded on streptavidin biosensors
IC50 [1]: 170 nM

B2: Peptide-50 (peptide)
peptide: MDWCPVHLWSVCFA
modifications: cysteine pairing not given here; also: biotinylated, site not given here
notes: as for B1
IC50 [1]: 2340 nM

B3: Peptide-5 (peptide)
peptide: DNCYVIWGFEWQCR
modifications: cysteine pairing not given here; also: biotinylated when captured on plate, site not given here
notes: biotinylated when captured on the plate
IC50 [2]: > 100 nM

B4: Peptide-6 (peptide)
peptide: VNCMRVHRTLTWCV
modifications: cysteine pairing not given here; also: biotinylated when captured on plate, site not given here
notes: as for B3
IC50 [2]: > 100 nM

B5: Peptide-7 (peptide)
peptide: FCTPREWSFLNFVC
modifications: cysteine pairing not given here; also: biotinylated when captured on plate, site not given here
notes: as for B3
IC50 [2]: > 100 nM

B6: Peptide-8 (peptide)
peptide: CFAYLWIDSWIRVC
modifications: cysteine pairing not given here; also: biotinylated when captured on plate, site not given here
notes: as for B3
IC50 [3]: > 100 nM | IC50 [2]: > 100 nM

B7: Phage-51 (peptide)
peptide: MDWCPMDLWDYCFN
Phage binding ELISA CD28 scFv signal in presence of CD28 [4]: 0.107 | Phage binding ELISA CD28 scFv signal [5]: 1.64

B8: Phage-52 (peptide)
peptide: MDWCPINLWDECFS
Phage binding ELISA CD28 scFv signal in presence of CD28 [6]: 0.096 | Phage binding ELISA CD28 scFv signal [7]: 1.5

B9: Phage-53 (peptide)
peptide: MDWCPMHLWNKCFN
Phage binding ELISA CD28 scFv signal in presence of CD28 [4]: 0.122 | Phage binding ELISA CD28 scFv signal [5]: 1.04

B10: Phage-56 (peptide)
peptide: MHWCPMDQWSNCFN
Phage binding ELISA CD28 scFv signal in presence of CD28 [6]: 0.084 | Phage binding ELISA CD28 scFv signal [7]: 0.515

B11: Phage-57 (peptide)
peptide: MDWCPRHRWVDCFY
Phage binding ELISA CD28 scFv signal in presence of CD28 [8]: 0.11 | Phage binding ELISA CD28 scFv signal [9]: 0.478

B12: Phage-59 (peptide)
peptide: MDWCPRDSWHLCFA
Phage binding ELISA CD28 scFv signal in presence of CD28 [8]: 0.147 | Phage binding ELISA CD28 scFv signal [9]: 2.45

B13: Phage-61 (peptide)
peptide: MVSCPTTMWNRCFN
Phage binding ELISA CD28 scFv signal [10]: 1.33 | Phage binding ELISA CD28 scFv signal in presence of CD28 [11]: 0.072

B14: Phage-62 (peptide)
peptide: MDWCPSYLWNECFF
Phage binding ELISA CD28 scFv signal in presence of CD28 [12]: 0.133 | Phage binding ELISA CD28 scFv signal [13]: 2

B15: Phage-33 (peptide)
peptide: MDWCPRFMWDECFN
Phage binding ELISA CD28 scFv signal [10]: 2.68 | Phage binding ELISA CD28 scFv signal in presence of CD28 [11]: 0.256

B16: Phage-36 (peptide)
peptide: MDWCPRYLWHVCFA
Phage binding ELISA CD28 scFv signal [14]: 2.48 | Phage binding ELISA CD28 scFv signal in presence of CD28 [15]: 0.226

B17: Phage-71 (peptide)
peptide: MDWCPRYLWHECFA
Phage binding ELISA CD28 scFv signal in presence of CD28 [4]: 0.429 | Phage binding ELISA CD28 scFv signal [5]: 2.63

B18: Phage-73 (peptide)
peptide: MDWCPRALWHECFN
Phage binding ELISA CD28 scFv signal in presence of CD28 [4]: 0.401 | Phage binding ELISA CD28 scFv signal [5]: 2.69

B19: Phage-83 (peptide)
peptide: MDWCPRFLWDECFN
Phage binding ELISA CD28 scFv signal in presence of CD28 [12]: 0.483 | Phage binding ELISA CD28 scFv signal [13]: 2.63

B20: Phage-95 (peptide)
peptide: MDWCPRFLWSECFN
Phage binding ELISA CD28 scFv signal in presence of CD28 [6]: 0.227 | Phage binding ELISA CD28 scFv signal [7]: 2.57

B21: Phage-100 (peptide)
peptide: MDWCPRYLWTECFN
Phage binding ELISA CD28 scFv signal in presence of CD28 [6]: 0.549 | Phage binding ELISA CD28 scFv signal [7]: 2.56

B22: Phage-56 (second entry so labelled, SEQ ID NO: 255) (peptide)
peptide: MDWCPRYLWNECFY
notes: label printed as Phage-56 between Phage-65 and Phage-67, probably Phage-66
Phage binding ELISA CD28 scFv signal [10]: 2.54 | Phage binding ELISA CD28 scFv signal in presence of CD28 [11]: 0.358

B23: Phage-102 (peptide)
peptide: MDWCPRYLWAECFY
Phage binding ELISA CD28 scFv signal in presence of CD28 [16]: 0.354

B24: Phage-69 (peptide)
peptide: MDWCPIHMWADCFA
Phage binding ELISA CD28 scFv signal in presence of CD28 [12]: 0.143 | Phage binding ELISA CD28 scFv signal [13]: 2.46

B25: Phage-70 (peptide)
peptide: ITWCPSSMWNRCFI
Phage binding ELISA CD28 scFv signal in presence of CD28 [12]: 0.11 | Phage binding ELISA CD28 scFv signal [13]: 0.379

B26: Phage-75 (peptide)
peptide: MDWCPRSHWHVCYN
Phage binding ELISA CD28 scFv signal [14]: 1.95 | Phage binding ELISA CD28 scFv signal in presence of CD28 [15]: 0.281

B27: Phage-24 (peptide)
peptide: MDWCPLYLWNECFN
Phage binding ELISA CD28 scFv signal in presence of CD28 [12]: 0.247 | Phage binding ELISA CD28 scFv signal [13]: 2.61

B28: Phage-80 (peptide)
peptide: MDWCPMYLWNECFS
Phage binding ELISA CD28 scFv signal in presence of CD28 [4]: 0.411

B29: Phage-89 (peptide)
peptide: MDWCPRALWNVCFN
Phage binding ELISA CD28 scFv signal in presence of CD28 [12]: 0.472 | Phage binding ELISA CD28 scFv signal [13]: 2.6

B30: Phage-90 (peptide)
peptide: MDWCPIDLWHLCFY
Phage binding ELISA CD28 scFv signal in presence of CD28 [6]: 0.488 | Phage binding ELISA CD28 scFv signal [7]: 2.59

B31: Phage-94 (peptide)
peptide: MDWCPRDLWSLCFY
Phage binding ELISA CD28 scFv signal in presence of CD28 [12]: 0.246 | Phage binding ELISA CD28 scFv signal [13]: 2.57

B32: Phage-22 (peptide)
peptide: MNWCPKDIWYLCFN
Phage binding ELISA CD28 scFv signal in presence of CD28 [8]: 0.168 | Phage binding ELISA CD28 scFv signal [9]: 2.62

B33: Phage-29 (peptide)
peptide: MDWCPRDLWVHCFA
Phage binding ELISA CD28 scFv signal in presence of CD28 [6]: 0.179 | Phage binding ELISA CD28 scFv signal [7]: 2.55

B34: Phage-32 (peptide)
peptide: MDWCPRDMWSVCFS
Phage binding ELISA CD28 scFv signal in presence of CD28 [6]: 0.207 | Phage binding ELISA CD28 scFv signal [7]: 2.62

B35: Phage-37 (peptide)
peptide: MHWCPVDLWYLCYN
Phage binding ELISA CD28 scFv signal [10]: 2.66 | Phage binding ELISA CD28 scFv signal in presence of CD28 [11]: 0.417

B36: Phage-39 (peptide)
peptide: MDWCPMHLWHQCFN
Phage binding ELISA CD28 scFv signal in presence of CD28 [8]: 0.299 | Phage binding ELISA CD28 scFv signal [9]: 2.56

B37: Phage-41 (peptide)
peptide: MAWCPRDKWSECFS
Phage binding ELISA CD28 scFv signal in presence of CD28 [6]: 0.147 | Phage binding ELISA CD28 scFv signal [7]: 0.853

B38: Phage-42 (peptide)
peptide: MDWCPRHLWVHCFN
Phage binding ELISA CD28 scFv signal in presence of CD28 [4]: 0.254 | Phage binding ELISA CD28 scFv signal [5]: 2.5
